In paper PMC7225057:
Where two headings read alike, the source gives them in different places.

Legend:
[1] = biological target: FITC-sCT(22–32) (salmon); test: fluorescence polarisation
[2] = biological target: biotinylated sCT(1–32) [C1A/C7A] (salmon); test: BLI
[3] = biological target: biotinylated sCT(1–32) [C1A/C7A] (salmon); test: BLI; remark: listed apart in the source
[4] = biological target: FITC-AM(37–52) [S45W/Q50W]; test: fluorescence polarisation
[5] = biological target: FITC-AM(37–52) [S45W/Q50W]; test: fluorescence polarisation; remark: listed apart in the source
[6] = biological target: Endo H-treated CTR.38–141 N130D (MBP-free CTR ECD) (human); test: fluorescence polarisation
[7] = biological target: Endo H-treated CTR.38–141 WT (MBP-free CTR ECD) (human); test: fluorescence polarisation
[8] = biological target: Glycan-free CTR.38–141 WT (E. coli-produced, MBP-free CTR ECD) (human); test: fluorescence polarisation

| Kd [1] | pKD [1] | Kd [4] | pKD [4] | Substance | further results |
| --- | --- | --- | --- | --- | --- |
|  |  | 310 nM | 6.51 | RAMP1-CLR.29–144 WT (tethered RAMP1-CLR ECD fusion, CGRP receptor ECD) (from UniProt O60894 24-111; Q16602 29-144) | Kd [5]: 280 nM; pKD [5]: 6.56 |
|  |  | 1400 nM | 5.87 | RAMP1-CLR.29–144 WT, PNGase F-treated (deglycosylated) (from UniProt O60894 24-111; Q16602 29-144) (receptor) |  |

Second part, the substance before the results:

| Substance | Kd [1] | pKD [1] | Kd [4] | pKD [4] | further results |
| --- | --- | --- | --- | --- | --- |
| CTR.34–141 WT (MBP-free CTR ECD, glycosylated, no enzyme treatment) (domain or fragment) | 380 nM | 6.43 |  |  |  |
| Endo H-treated CTR.38–141 N130D (MBP-free CTR ECD) (domain or fragment) | 2000 nM | 5.7 |  |  | Kd [2]: 11.9 µM; Kd [3]: 12.4 µM |
| Endo H-treated CTR.38–141 WT (MBP-free CTR ECD) (domain or fragment) | 500 nM | 6.3 |  |  | kon [3]: 178000 M⁻¹ s⁻¹ |
| Glycan-free CTR.38–141 WT (E. coli-produced, MBP-free CTR ECD) (domain or fragment) | 2700 nM | 5.57 |  |  | Kd [2]: 10.8 µM; Kd [3]: 30.9 µM |
| RAMP1-CLR.29–144 N123D (tethered RAMP1-CLR ECD fusion) (from UniProt O60894 24-111; Q16602 29-144) (receptor) |  |  | 740 nM | 6.13 |  |
| salmon calcitonin sCT(22–32), unlabeled (peptide) |  |  |  |  | Ki [6]: 5.6 µM; pKI [6]: 5.26; Ki [7]: 1600 nM; pKI [7]: 5.81; Ki [8]: 11 µM; pKI [8]: 4.97 |
